According to paper PMC3942315, “Structural Insights Into DNA Repair by RNase T—An Exonuclease Processing 3′ End of Structured DNA in Repair Pathways” (PLoS Biology, 2014):

Columns and labels:
[1] = molecular target: T1, RNase T (Escherichia coli (JM109 or K-12), UniProt P30014 1-215); assay: EMSA; 30 mM EDTA, 10 mM EGTA; EMSA: 20 nM DNA, 0/5/50 uM protein, 100 mM NaCl, 30 mM EDTA, 10 mM EGTA, 50 mM Tris-HCl pH 7.0, 20 min, room temperature; details: protein: recombinant, tags: N-terminal His (pET-28a), chain copies: 2, label: 5'-32P, hairpin
T1 sequence: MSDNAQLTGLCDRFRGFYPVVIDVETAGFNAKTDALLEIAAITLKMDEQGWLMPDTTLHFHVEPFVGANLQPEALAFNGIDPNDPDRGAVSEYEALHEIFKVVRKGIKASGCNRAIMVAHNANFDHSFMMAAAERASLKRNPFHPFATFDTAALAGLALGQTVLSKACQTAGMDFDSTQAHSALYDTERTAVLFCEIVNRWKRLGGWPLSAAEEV

[2] = molecular target: T1, RNase T; assay: X-ray crystallography; 2 Mg2+ in active site; one DNA per protomer; 1.9 A; EMSA: 20 nM DNA, 0/5/50 uM protein, 100 mM NaCl, 30 mM EDTA, 10 mM EGTA, 50 mM Tris-HCl pH 7.0, 20 min, room temperature; details: protein: recombinant; tags: N-terminal His (pET-28a); chain copies: 2; Y structure (5' and 3' unpaired tails)
[3] = molecular target: the molecule itself; assay: dynamic light scattering; purified recombinant proteins in solution; conditions not given

GGCCCTCTTTAGGGCCTTATAA (structured_DNA) [Stem-loop duplex DNA, 6-nt 3' overhang]
binding result ([1]; 3' overhang 6 nt): binds

GGCCCTCTTTAGGGCCAAGGGTTTAA (structured_DNA) [Stem-loop duplex DNA, 10-nt 3' overhang]
binding result ([1]; 3' overhang 10 nt): binds

TTGGCCCTCTTTAGGGCCCC (structured_DNA) [Y-structured DNA, 3'-CC (crystal)]
binding result [2]: binds

B1: RNase T (enzyme, E. coli, UniProt P30014 1-215, looked up)
chain: MSDNAQLTGLCDRFRGFYPVVIDVETAGFNAKTDALLEIAAITLKMDEQGWLMPDTTLHFHVEPFVGANLQPEALAFNGIDPNDPDRGAVSEYEALHEIFKVVRKGIKASGCNRAIMVAHNANFDHSFMMAAAERASLKRNPFHPFATFDTAALAGLALGQTVLSKACQTAGMDFDSTQAHSALYDTERTAVLFCEIVNRWKRLGGWPLSAAEEV
notes: RNase T (rnt gene) of E. coli, full-length gene amplified from genomic DNA of JM109 or K-12 strains, cloned into NdeI/XhoI sites of pET-28a; Wild-type RNase T was used for crystallisation; also called rnt; DnaQ-like exonuclease RNase T; source: E. coli BL21-CodonPlus(DE3)-RIPL, purified (HiTrap TALON, HiTrap Heparin, Superdex 75)
stoichiometry N [3]: 2

GGCCCTCTTTAGGGCCTTAA (structured_DNA) [Stem-loop duplex DNA, 4-nt 3' overhang]
binding result ([1]; 3' overhang 4 nt): binds
